The values below come from patent publication US20110212106A1, “HIV-1 NE[…] USES THEREOF” (priority 2010, published 2011).

Assay [1] has as its target IIIB gp120 envelope protein (HIV-1 IIIB) (UniProt P03375). Description: ELISA, inhibition of gp120 binding to solid-phase sCD4. (ELISA stands for enzyme-linked immunosorbent assay.)
Assay [2] has as its target HIV-1 gp120 (strain not stated at these places) (HIV-1). Briefly: competition ELISA on immobilized gp120, competitor labeled HJ16.

b12 (antibody) yielded an IC50 in assay [1] of 1.16 µg/mL. For the same substance, the plateau of inhibition in assay [2] turned out to be 80%.

By IC50 is commonly meant the concentration at which inhibition is half-maximal. The low end stands for greater potency in that assay, the high end for weaker potency in that assay.
